# Columns and labels:
# [1] = molecular target: T1, Human LILRA2 ECD recombinant protein with His-tag (human, UniProt Q8N149 24-449); assay: ELISA: plate coated with LILRA2 ECD recombinant protein [continued) B]
# T1 construct: range 24-449; Bought protein; not shown: His-tag
# [2] = molecular target: Human LILRB4 ECD recombinant protein with 6×His-tag (human) (UniProt Q8NHJ6); assay: ELISA: plate coated with LILRB4 ECD recombinant protein, antibody at 0.5 ug/mL (method of example 3.2.1); mean OD450 printed over the bar [continued) H]
# [3] = molecular target: T2, 6×His-tagged human LILRB2 ECD recombinant protein (human, UniProt Q8N423 22-458, limits assumed); assay: Octet tandem binning on captured 6×His LILRB2 ECD; competitor (Ab1) J-19
# T2 construct: Bought protein; not shown: 6×His-tag
# [4] = molecular target: T3, Human LILRA1 ECD recombinant protein with 6×His-tag (human, UniProt O75019 17-461); assay: ELISA: plate coated with LILRA1 ECD recombinant protein
# T3 construct: range 1-461; Bought protein; not shown: 6×His-tag
# [5] = molecular target: T3, Human LILRA1 ECD recombinant protein …; assay: ELISA: plate coated with LILRA1 ECD recombinant protein, antibody at 0.5 ug/mL (method of example 3.2.1); mean OD450 printed over the bar
# Description: (§1) Briefly, 0.5 μg/mL anti-LILRB2 antibodies were incubated in human LILRB2 ECD recombinant protein-coated ELISA plate at 37° C. for 1 hour. After washing, horseradish peroxidase (HRP) labeled detection antibody was added and incubated at 37° C. for 1 hour. Color development was conducted by the addition of 100 μl/well of TMB (3,3′,5,5′-Tetramethylbenzidine) solution. After incubation at room temperature (RT) for 10-15 minutes, the reaction was stopped by adding 100 μl 1N HCl. Then the plates were read immediately using plate reader for optical density at 450 nm.
# [6] = molecular target: T2, 6×His-tagged human LILRB2 ECD …; assay: ELISA: plate coated with 6xHis-tagged human LILRB2 ECD, antibody at 0.5 ug/mL, HRP detection antibody; mean OD450 printed over the bar
# Description: as §1
# [7] = molecular target: T4, Human LILRA3 ECD recombinant protein with 6×His-tag (human, UniProt Q8N6C8 24-439); assay: ELISA: plate coated with LILRA3 ECD recombinant protein, antibody at 0.5 ug/mL (method of example 3.2.1); mean OD450 printed over the bar [continued) C]
# T4 construct: range 1-439; Bought protein; not shown: 6×His-tag
# [8] = molecular target: T5, Human LILRB5 ECD recombinant protein with 6×His-tag (human, UniProt O75023 24-458, limits assumed); assay: ELISA: plate coated with LILRB5 ECD recombinant protein [continued) I]
# T5 construct: Bought protein; not shown: 6×His-tag
# [9] = molecular target: T6, Human LILRB3 ECD recombinant protein with 6×His-tag (human, UniProt O75022 24-443); assay: ELISA: plate coated with LILRB3 ECD recombinant protein [continued) G]
# T6 construct: range 1-443; Bought protein; not shown: 6×His-tag
# [10] = molecular target: T7, Human LILRA5 ECD recombinant protein with 6×His-tag (human, UniProt A6NI73 42-268); assay: ELISA: plate coated with LILRA5 ECD recombinant protein, antibody at 0.5 ug/mL (method of example 3.2.1); mean OD450 printed over the bar [continued) E]
# T7 construct: range 1-268; Bought protein; not shown: 6×His-tag
# [11] = molecular target: T8, Human LILRA4 ECD recombinant protein with 6×His-tag (human, UniProt P59901 24-446); assay: ELISA: plate coated with LILRA4 ECD recombinant protein, antibody at 0.5 ug/mL (method of example 3.2.1); mean OD450 printed over the bar [continued) D]
# T8 construct: range 1-446; Bought protein; not shown: 6×His-tag
# [12] = molecular target: T9, Human LILRB2 stably expressed on EL4 cells (EL4/LILRB2) (human, UniProt Q8N423 22-597); assay: Competitive FACS: EL4/LILRB2 cells preincubated with 10 ug/mL antibody, then ANGPTL2 added; inhibition of the ligand's binding to the cells [panel ANGPTL2]
# T9 construct: also called EL4-LILRB2 cells; cell membrane human LILRB2
# Description: (§2) The blocking activities were determined by quantitating the blockade of the ligands binding to EL4/LILRB2 cells.
# [13] = molecular target: T9, Human LILRB2 stably expressed on EL4 …; assay: Competitive FACS: EL4/LILRB2 cells preincubated with 10 ug/mL antibody, then HLA-G complex tetramer added; inhibition of the ligand's binding to the cells [panel HLA-G]
# Description: as §2
# [14] = molecular target: T5, Human LILRB5 ECD recombinant protein …; assay: ELISA: plate coated with LILRB5 ECD recombinant protein, antibody at 0.5 ug/mL (method of example 3.2.1); mean OD450 printed over the bar [continued) I]
# Description: as §1
# [15] = molecular target: T10, Human LILRB1 ECD recombinant protein with 6×His-tag (human, UniProt Q8NHL6 24-458, limits assumed); assay: ELISA: plate coated with LILRB1 ECD recombinant protein [continued) F]
# T10 construct: Bought protein; not shown: 6×His-tag
# [16] = molecular target: T9, Human LILRB2 stably expressed on EL4 …; assay: Competitive FACS: EL4/LILRB2 cells preincubated with 10 ug/mL antibody, then MAG ECD added; inhibition of the ligand's binding to the cells [panel MAG]
# Description: as §2
# [17] = molecular target: T6, Human LILRB3 ECD recombinant protein …; assay: ELISA: plate coated with LILRB3 ECD recombinant protein, antibody at 0.5 ug/mL (method of example 3.2.1); mean OD450 printed over the bar [continued) G]
# Description: as §1
# [18] = molecular target: T9, Human LILRB2 stably expressed on EL4 …; assay: competitive FACS on EL4/LILRB2 cells, blockade of HLA-G binding
# Description: as §2
# [19] = molecular target: T9, Human LILRB2 stably expressed on EL4 …; assay: Competitive FACS: EL4/LILRB2 cells preincubated with 10 ug/mL antibody, then ANGPTL4 added; inhibition of the ligand's binding to the cells [panel ANGPTL4]
# Description: as §2
# [20] = molecular target: T2, 6×His-tagged human LILRB2 ECD …; assay: Octet tandem binning on captured 6×His LILRB2 ECD; competitor (Ab1) 043c
# Description: Briefly, the HIS1K sensors were hydrolyzed for 10 minutes followed by capture of 6×His-tagged human LILRB2 ECD recombinant protein to 0.3 nm. The LILRB2 captured sensors were then exposed to Ab1 and Ab2 in tandem or Ab2 directly. The binding signals of Ab2 to LILRB2 under different conditions were detected respectively. Finally, the relative binding signals of Ab2 in tandem were calculated by normalization. High relative binding signals represent low competition between Ab2 and Ab1 for binding antigen. Likewise, low relative association signals represent high competition between Ab2 and Ab1.
# T5 sequence (O75023 24-458 limits assumed): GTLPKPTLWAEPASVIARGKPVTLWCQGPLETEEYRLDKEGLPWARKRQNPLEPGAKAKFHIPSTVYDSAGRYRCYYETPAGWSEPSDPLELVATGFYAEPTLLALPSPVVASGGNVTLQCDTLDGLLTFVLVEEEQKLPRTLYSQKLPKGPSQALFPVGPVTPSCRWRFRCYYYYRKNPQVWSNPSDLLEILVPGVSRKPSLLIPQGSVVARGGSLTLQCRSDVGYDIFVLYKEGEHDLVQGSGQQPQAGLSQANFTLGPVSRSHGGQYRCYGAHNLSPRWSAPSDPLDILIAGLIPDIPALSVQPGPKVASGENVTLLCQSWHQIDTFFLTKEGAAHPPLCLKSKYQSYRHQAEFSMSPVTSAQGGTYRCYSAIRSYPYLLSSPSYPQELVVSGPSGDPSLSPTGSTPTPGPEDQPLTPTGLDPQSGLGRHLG
# T8 sequence (P59901 24-446 limits assumed): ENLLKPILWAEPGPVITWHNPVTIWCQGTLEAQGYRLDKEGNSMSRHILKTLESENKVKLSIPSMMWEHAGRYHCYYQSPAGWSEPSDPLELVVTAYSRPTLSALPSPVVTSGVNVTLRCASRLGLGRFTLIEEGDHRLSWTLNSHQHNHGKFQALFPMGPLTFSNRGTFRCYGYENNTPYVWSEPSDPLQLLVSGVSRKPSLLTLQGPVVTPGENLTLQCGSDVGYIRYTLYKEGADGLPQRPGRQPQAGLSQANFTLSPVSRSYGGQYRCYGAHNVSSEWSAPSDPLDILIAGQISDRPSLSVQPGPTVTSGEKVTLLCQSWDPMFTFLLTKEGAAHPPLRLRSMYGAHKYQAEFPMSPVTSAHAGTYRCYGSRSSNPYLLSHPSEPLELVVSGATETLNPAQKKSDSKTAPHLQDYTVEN
# T10 sequence (Q8NHL6 24-458 limits assumed): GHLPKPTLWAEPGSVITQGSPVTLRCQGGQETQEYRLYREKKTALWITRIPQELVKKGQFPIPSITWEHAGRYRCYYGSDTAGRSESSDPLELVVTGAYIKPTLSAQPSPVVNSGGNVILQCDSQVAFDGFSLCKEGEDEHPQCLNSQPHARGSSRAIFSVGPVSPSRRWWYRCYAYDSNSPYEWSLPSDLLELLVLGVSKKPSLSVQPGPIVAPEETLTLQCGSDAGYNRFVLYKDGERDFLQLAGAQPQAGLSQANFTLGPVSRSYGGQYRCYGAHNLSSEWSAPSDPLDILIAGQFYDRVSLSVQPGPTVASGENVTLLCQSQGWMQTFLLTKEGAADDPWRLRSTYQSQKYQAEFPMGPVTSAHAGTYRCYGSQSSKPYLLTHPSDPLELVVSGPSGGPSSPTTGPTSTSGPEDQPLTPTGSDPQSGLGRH
# T2 sequence (Q8N423 22-458 limits assumed): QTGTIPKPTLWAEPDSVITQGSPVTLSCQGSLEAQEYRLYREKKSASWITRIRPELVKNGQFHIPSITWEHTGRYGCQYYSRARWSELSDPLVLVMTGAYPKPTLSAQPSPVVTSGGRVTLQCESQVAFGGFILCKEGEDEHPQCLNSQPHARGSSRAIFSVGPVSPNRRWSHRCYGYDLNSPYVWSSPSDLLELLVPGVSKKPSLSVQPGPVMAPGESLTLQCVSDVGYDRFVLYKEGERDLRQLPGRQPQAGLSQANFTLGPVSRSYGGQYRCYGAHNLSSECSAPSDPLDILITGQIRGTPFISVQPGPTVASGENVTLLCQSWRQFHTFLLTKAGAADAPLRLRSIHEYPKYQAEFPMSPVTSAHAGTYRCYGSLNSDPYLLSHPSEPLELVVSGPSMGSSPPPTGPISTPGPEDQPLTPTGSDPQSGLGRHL
# T7 sequence (A6NI73 42-268 limits assumed, form in doubt): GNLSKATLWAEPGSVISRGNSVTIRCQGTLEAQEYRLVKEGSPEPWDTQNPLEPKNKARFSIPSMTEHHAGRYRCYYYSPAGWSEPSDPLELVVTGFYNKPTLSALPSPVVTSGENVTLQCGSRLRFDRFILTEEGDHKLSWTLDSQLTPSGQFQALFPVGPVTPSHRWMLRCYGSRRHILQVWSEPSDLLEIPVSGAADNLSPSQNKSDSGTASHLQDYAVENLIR
# T4 sequence (Q8N6C8 24-439 limits assumed, form in doubt): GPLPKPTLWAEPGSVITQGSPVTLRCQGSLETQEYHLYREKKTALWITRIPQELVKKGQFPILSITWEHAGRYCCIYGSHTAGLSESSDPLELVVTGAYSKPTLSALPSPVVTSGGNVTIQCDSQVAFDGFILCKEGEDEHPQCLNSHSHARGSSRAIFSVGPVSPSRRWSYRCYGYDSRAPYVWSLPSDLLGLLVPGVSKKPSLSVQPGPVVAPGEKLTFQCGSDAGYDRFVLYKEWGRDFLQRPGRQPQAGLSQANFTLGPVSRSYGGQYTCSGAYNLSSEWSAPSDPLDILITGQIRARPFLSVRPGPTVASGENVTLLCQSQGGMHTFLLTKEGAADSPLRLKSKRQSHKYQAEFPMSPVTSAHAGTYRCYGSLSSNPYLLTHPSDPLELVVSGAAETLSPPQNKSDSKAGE
# T9 sequence (Q8N423 22-597 limits assumed): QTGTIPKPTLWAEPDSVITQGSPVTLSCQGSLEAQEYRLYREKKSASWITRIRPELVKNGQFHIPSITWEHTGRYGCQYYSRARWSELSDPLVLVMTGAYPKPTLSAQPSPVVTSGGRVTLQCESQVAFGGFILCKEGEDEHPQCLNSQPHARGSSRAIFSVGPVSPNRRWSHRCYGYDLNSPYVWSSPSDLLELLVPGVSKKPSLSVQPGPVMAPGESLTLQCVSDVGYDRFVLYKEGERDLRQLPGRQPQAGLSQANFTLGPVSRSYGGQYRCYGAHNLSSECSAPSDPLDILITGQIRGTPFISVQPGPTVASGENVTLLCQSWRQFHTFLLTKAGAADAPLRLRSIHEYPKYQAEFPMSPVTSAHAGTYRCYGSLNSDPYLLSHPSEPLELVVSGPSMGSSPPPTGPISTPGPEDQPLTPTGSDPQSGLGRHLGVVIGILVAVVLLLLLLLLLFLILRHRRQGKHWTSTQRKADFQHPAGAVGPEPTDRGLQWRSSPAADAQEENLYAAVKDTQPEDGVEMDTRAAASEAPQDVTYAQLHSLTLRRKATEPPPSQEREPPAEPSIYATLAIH
# T3 sequence (O75019 17-461 limits assumed): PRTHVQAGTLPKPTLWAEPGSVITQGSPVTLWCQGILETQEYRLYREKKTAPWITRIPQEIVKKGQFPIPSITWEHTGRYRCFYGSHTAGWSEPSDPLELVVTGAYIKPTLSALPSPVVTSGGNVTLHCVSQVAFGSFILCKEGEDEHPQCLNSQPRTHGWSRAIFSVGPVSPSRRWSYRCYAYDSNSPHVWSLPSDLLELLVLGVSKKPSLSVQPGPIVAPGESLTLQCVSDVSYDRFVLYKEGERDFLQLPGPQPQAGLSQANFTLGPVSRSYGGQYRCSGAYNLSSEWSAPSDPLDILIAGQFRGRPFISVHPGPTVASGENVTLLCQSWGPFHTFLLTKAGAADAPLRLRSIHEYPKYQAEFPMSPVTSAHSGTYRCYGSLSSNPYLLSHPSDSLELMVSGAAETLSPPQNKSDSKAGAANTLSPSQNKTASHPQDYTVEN
# T1 sequence (Q8N149 24-449 limits assumed): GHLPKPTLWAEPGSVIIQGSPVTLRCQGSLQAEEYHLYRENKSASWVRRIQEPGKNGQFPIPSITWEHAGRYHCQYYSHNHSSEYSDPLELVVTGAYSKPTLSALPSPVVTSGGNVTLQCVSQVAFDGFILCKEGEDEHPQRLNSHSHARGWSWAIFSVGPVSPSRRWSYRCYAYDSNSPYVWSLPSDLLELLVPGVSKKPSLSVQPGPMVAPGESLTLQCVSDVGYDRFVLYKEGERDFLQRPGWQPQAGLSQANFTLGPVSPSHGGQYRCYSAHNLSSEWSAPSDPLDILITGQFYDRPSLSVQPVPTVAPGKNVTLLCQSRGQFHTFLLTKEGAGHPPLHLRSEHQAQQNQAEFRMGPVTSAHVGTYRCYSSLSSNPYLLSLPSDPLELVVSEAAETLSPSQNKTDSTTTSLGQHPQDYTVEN
binding result [1],OD450 [2],relative binding signal of Ab2 in tandem [3] [%],binding result [4],OD450 [5],OD450 [6],OD450 [7],binding result [8],binding result [9],OD450 [10],OD450 [11],Inhibition (%) [12] [%],Inhibition (%) [13] [%],OD450 [14],binding result [15],Inhibition (%) [16] [%],OD450 [17],IC50 [18] [nM],TOP Blocking (%) [18] [%],Inhibition (%) [19] [%],Binder,further results
no binding (tested: 0.5 ug/mL),0.14,-3,no binding (tested: 0.5 ug/mL),0.16,3.27,0.08,no binding (tested: 0.5 ug/mL),no binding (tested: 0.5 ug/mL),0.09,0.17,97,100,0.09,no binding (tested: 0.5 ug/mL),13,0.09,0.04,100,59,"J-19 (antibody, V domains shown, Human IgG4 monoclonal antibody with S228P in the constant region, made according to WO 2019/126514 A2; also called benchmark antibody J-19) VH: QVTLKESGPGILQPSHTLSLTCSFSGFSLNTYAMGVSWIRQPSGKGLEWLASIWWNGNKYNNPSLKSRLTVSKDTSNNQAFLKVTSVDTADTATYYCAHSRIIRFTDYVMDAWGQGASVTVSS VL: DIQMTQSPASLSTFLGEPVTIECRASEDIYNDLAWYQQKPGKSPQLLIYNANSLHTGVPSRFSGSGSGTQYSLKINSLQSEDVASYFCQQYYDYPLTFGSGTKLEIK",relative binding signal of Ab2 in tandem [20]: 96%
no binding (tested: 0.5 ug/mL),0.11,100,no binding (tested: 0.5 ug/mL),0.15,2.72,0.09,no binding (tested: 0.5 ug/mL),no binding (tested: 0.5 ug/mL),0.08,0.13,93,100,0.08,no binding (tested: 0.5 ug/mL),90,0.08,0.1,100,63,"043c (antibody, V domains shown, Human IgG4 chimeric antibody with S228P mutation at the Fc region; also called chimeric antibody 043c; parental antibody 043c) VH: QVQLQQSGAELAKPGASVKLSCKASGYTFTSYWMYWVKQRPGQGLEWIGHINPSSGYTKYNQKFKDKATLTADKSSSTAYMQLSSLTYEDSAVYYCARDPNWDNYWGQGTTLTVSS VL: DIVMTQSHKFMSTSVGDRVSITCKASQDVSIAVAWYQQKPGQSPKLLIYSASYRYTGVPDRFTGSGSGTDFTFTISSVQAEDLAVYYCQQHYSTPYTFGGGTKLEIK",relative binding signal of Ab2 in tandem [20]: 3%
no binding (tested: 0.5 ug/mL),0.1,17,no binding (tested: 0.5 ug/mL),0.15,1.42,0.07,no binding (tested: 0.5 ug/mL),no binding (tested: 0.5 ug/mL),0.07,0.12,94,100,0.07,no binding (tested: 0.5 ug/mL),93,0.07,0.32,100,54,"1E1 (antibody, V domains shown, Human IgG4 monoclonal antibody with S228P in the constant region, made according to US 2018/0298096 A1; also called benchmark antibody 1E1) VH: QVQLQQWGAGLLKPSETLSLTCAVYGGSFSGYYWSWIRQPPGKGLEWIGEINHSGSTNYNPSLKSRVTISVDTSKNQFSLKLSSVTAADTAVYYCARLPTRWVTTRYFDLWGRGTLVTVSS VL: QSVLTQPPSVSGAPGQRVTISCTGSSSNIGAGYDVHWYQQLPGTAPKLLIYGNSNRPSGVPDRFSVSKSGASASLAITGLQAEDEADYYCQSFDNSLSAYVFGGGTQLTVL",relative binding signal of Ab2 in tandem [20]: 100%

# From patent publication US20260008847A1 (ELPISCIENCE SUZHOU BIOPHARMA, published 2026)
